From patent US20100330076A1 (RESEARCH DEVELOPMENT FOUNDATION, published 2010) come the findings set out here.

Sequences and labels used below:
B1: Fc611 (other)
chain: DKTHTCPPCPAPELLGGPSVFLFPPKPKDTLMISRTPEVTCVVVDVSHEDPEVKFNWYVDGVEVHNAKTKPREEQYNSTYRVVSVLTVLHQDWLNGKEYKCKVSNKALPAPIEKTISKAKVQPREPQVYTLPPSRDELTKNQVSLTCLVKGFYPSDIAVEWVSNGQPENNYKTTPPVLDSDGSFFLYSKLTVDKSRWQQGNVFSCSVIHEALHNHYTQKSLSLSPGK
notes: Aglycosylated Fc fragment (E. coli, pPelBFLAG), assayed on spheroplasts; not shown: C-terminal FLAG tag from pPelBFLAG
B2: Fc617 (other)
chain: DKTHTCPPCPAPELLGGPSVFLFPPKPKDTLMISRTPEVTCVVVDVSHEDPEVKFNWYVDGVEVHNAKTKPREEQYNSTYRVVSVLTVLHQDWLNGKEYKCKVSNKALPAPIEKTISKAKVQPREPQMYTLPPSRDELTKNQVSLTCLVKGFYPSDIAVEWVSNGQPENNYKTTPPVLDSDGSFFLYSKLTVDKSRWQQGNVFSCSVIHEALHNHYTQKSLSLSPGK
notes: as for B1
B3: Fc612 (other)
chain: DKTHTCPPCPAPELLGGPSVFLFPPKPKDTLMISRTPEVTCVVVDVSHEDPEVKFDWYVDGVEVHNAKTKPREEQYNSTYRVVSVLTVLHQDWLNGKEYKCKVSNKALPAPIEKTISKAKVQPREPQVYTLPPSRDELTKNQVSLTCLVKGFYPSDIAVEWVSNGQPENNYKTTPPVLDSDGSFFLYSKLTVDKSRWQQGNVFSCSVIHEALHNHYTQKSLSLSPGK
notes: as for B1
B4: Fc610 (other)
chain: DKTHTCPPCPAPELLGGPSVLLFPPKPKDTLMISRTPEVTCVVVDVSHEDPEVKFNWYVDGVEVHNAKTKPREEQYNSTYRVVSVLTVLHQDWLNGKEYKCKVSNKALPAPIEKTISKAKVQPREPQVYTLPPSRDELTKNQVSLTCLVKGFYPSDIAVEWVSNGQPENNYKTTPPVLDSDGSFFLYSKLTVDKSRWQQGNVFSCSVIHEALHNHYTQKSLSLSPGK
notes: as for B1
B5: Fc616 (other)
chain: DKTHTCPPCPAPELLGGPSVFLFPPKPKDTLMISRTPEVTCVVVDVSHEDPEVKFNWYVDGVEVHNAKTKPREEQYNSTCRVVSVLTVLHQDWLNGKEYKCKVSNKALPAPIEKTISKAKVQPREPQVYTLPPSRDELTKNQVSLTCLVKGFYPSDIAVEWVSNGQPENNYKTTPPVLDSDGSFFLYSKLTVDKSRWQQGNVFSCSVIHEALHNHYTQKSLSLSPGK
notes: as for B1
B6: Fc614 (other)
chain: DKTHTCPPCPAPELLGGPSVFLFPPKPKDTLMISRTPEVTCVVVDVSHEDPEVKFNWYVDGVEVHDAKTKPREEQYNSTYRVVSVLTVLHQDWLNGKEYKCKVSNKALPAPIEKTISKAKVQPREPQVYTLPPSRDELTKNQVSLTCLVKGFYPSDIAVEWVSNGQPENNYKTTPPVLDSDGSFFLYSKLTVDKSRWQQGNVFSCSVIHEALHSHYTQKSLSLSPGK
notes: as for B1
B7: Fc609 (other)
chain: DKTHTCPPCPAPELLGGPSVFLFPPKPKDTLMISRTPEVTCVVVDVSHEDPEVKFNWYVDGVEVHNAKTKPREEQYNSTYRVVSVLTVLHQDWLNGKEYKCKVSNKALPAPIEKTISRAKVQPREPQVYTLPPSRDELTKNQVSLTCLVKGFYPSDIAVEWVSNGQPENNYKTTPPVLDSDGSFFLYSKLTVDKSRWQQGNVFLCSVIHEALHDHYTQKSLSLSPGK
notes: as for B1
B8: Fc702 (other)
chain: DKTHTCPPCPAPELLGGPSVFLFPPKPKDTLMISRTPEVTCVVVDVSHEDPEVKFNWYMDGVEVHNAKTKPREEQYNSTYRVVSVLTVLHQDWLNGKEYKCKVSNKAWPEEYEKTISKAKGQPREPQVYTLPPSRDELTKNQVSLTCLVKGFYPSDIAVEWVSNGQPENNYKTTPPVLDSDGSFFLYSKLTVDKSRWQQGNVFSCSVIHEALHNHYTQKSLSLSPGK
notes: as for B1
B9: Fc706 (other)
chain: DKTHTCPPCPAPELLGGPSVFLFPPKPKDTLMISRTPEVTCVVVDVSHEDPEVKFNWYVDGVEVHNAKTKPREEQYNSTYRVVSVLTVLHQDWLNGKEYKCKVSNKAWPIEYEKTISKAKGQPREPQVYTLPPSRDELTKNQVSLTCLVKGFYPSDIAVEWVSNGQPENNYKTTPPVLDSDGSFFLYSKLTVDKSRWQQGNVFSCSVIHEALHNHYTQKSLSLSPGK
notes: as for B1
B10: Fc708 (other)
chain: DKTHTCPPCPAPELLGGPSVFLFPPKPKDTLMISRTPEVTCVVVDVSHEDPEVKFNWYVDGVEVHNAKTKPREEQYNSTYRVVSVLTVLHQDWLNGKEYKCKVSNKAWPASYEKTISKAKGQPREPQVYTLPPSRDELTKNQVSLTCLVKGFYPSDIAVEWVSNGQPENNYKTTPPVLDSDGSFFLYSKLTVDKSRWQQGNVFSCSVIHEALHNHYTQKSLSLSPGK
notes: as for B1
B11: Fc613 (other)
chain: DKTHTCPPCPAPELLGGPSVFLFPPKPKDTLMISRTPEVTCVVVDVSHEDPEVKFNWYVDGVEVHNAKTKPREEQYNSTYRVVSVLTVLHQDWLNGKEYKCKVSNKALPAPIEKTISKAKVQPREPQVYTLPPSRDELTKNQVSLTCLAKGFYPSDIAVEWVSNGQPENNYKTTPPVLDSDGSFFLYSKLTVDKSRWQQGNVFSCSVIHEALHNHYTQKSLSLSPGK
notes: as for B1
B12: Fc704 (other)
chain: DKTHTCPPCPAPELLGGPSVFLFPPKPKDTLMISRTPEVTCVVVDVSHEDPEVKFNWYVDGVEVHNAKTKPREEQYNSTYRVVSVLTVLHQDWLNGKEYKCKVSNKAWPEVYEKTISKAKGQPREPQVYTLPPSRDELTKNQVSLTCLVKGFYPSDIAVEWVSNGQPENNYKTTPPVLDSDGSFFLYSKLTVDKSRWQQGNVFSCTVIHEALHNHYTQKSLSLSPGK
notes: as for B1
B13: Fc601 (other)
chain: DKTHTCPPCPAPELLGGPSVFLFPPKPKDTLMISRTPEVTCVVVDVSHEDPEVKFNWYVDGVEVHNAKTKPREEQYNSTYRVVSVLTVLHQDWLNGKEYKCKVSNKALPAPIEKTISRAKVQPREPQVYTLPPSRDELTKNQVSLTCLVKGFYPSDIAVEWVSNGQPENNYKTTPPVLDSDGSFFLYSKLTVDKSRWQQGNVFSCSVIHEALHNHYTQKSLSLSPGK
notes: Aglycosylated Fc fragment (E. coli, pPelBFLAG), assayed on spheroplasts; also called IgG1-Fc601; not shown: C-terminal FLAG tag from pPelBFLAG
B14: Fc619 (other)
chain: DKTHTCPPCPAPELLGGPSVFLFPPKPKDTLMISRTPEVTCVVVDMSHEDPEVKFNWYVDGVEVHNAKTKPREEQYNSTYRVVSVLTVLHQDWLNGKEYKCKVSNKALPAPIEKTISKAKGQPREPQVYTLPPSRDELTKNQVSLTCLVKGFYPSDIAVEWVSNGQPENNYKTTPPVLDSDGSFFLYSKLTVDKSRWQQGNVFSCSVIHEALHNHYTQKSLSLSPGK
notes: as for B1
B15: Fc701 (other)
chain: DKTHTCPPCPAPELLGGPSVFLFPPKPKDTLMISRTPEVTCVVVDVSHEDPEVKFNWYVDGVEVHNAKTKPREERYNSTYRVVSVLTVLHQDWLNGKEYKCKVSNKAWPVAYEKTISKAKGQPREPQVYTLPPSRDELTKNQVSLTCLVKGFYPSDIAVEWVSNGQPENNYKTTPPVLDSDGSFFLYSKLTVDKSRWQQGNVFSCSVIHEALHNHYTQKSLSLSPGK
notes: Aglycosylated Fc fragment (E. coli, pPelBFLAG), assayed on spheroplasts; also called IgG1-Fc701; not shown: C-terminal FLAG tag from pPelBFLAG
B16: Fc707 (other)
chain: DKTHTCPPCPAPELLGGPSVFLFPPKPKDTLMISRTPEVTCVVVDVSHEDPEVKFNWYVDGVEVHNAKTKPREEQYNSTYRVVSVLTVLHQDWLNGKEYKCKVSNKAWPEPYEKTISKAKGQPREPQVYTLPPSRDELTKNQVSLTCLVKGFYPSDIAVEWVSNGQPENNYKTTPPVLDSDGSFFLYSKLTVDKSRWQQGNVFSCSVIHEALHNHYTQKSLSLSPGK
notes: as for B1
B17: Fc615 (other)
chain: DKTHTCPPCPAPELLGGPSVFLFPPKPKDTLMISRTPEVTCVVVDVSHEDPEVKFNWYVDGVEVHNAKTKPREEQYNSTYRVVSVLTVLHQDWLNGKEYKCKVSSKALPAPIEKTISKAKVQPREPQVYTLPPSRDELTKNQVSLTCLVKGFYPSDIAVEWVSNGQPENNYKTTPPVLDSDGSFFLYSKLTVDKSRWQQGNVFSCSVIHEALHNHYTQKSLSLSPGK
notes: as for B1
B18: Fc705 (other)
chain: DKTHTCPPCPAPELLGGPSVFLFPPKPKDTLMISRTPEVTCVVVDVSHEDPEVKFNWYVDGVEVHNAKTKPREEQYNSTYRVVSVLTVLHQDWLNGKEYKCKVSNKAWPEVYEKTISKAKGQPREPQVYTLPPSRDELTKNQVSLTCLVKGFYPSDIAVEWVSNGQPENNYKTTPPVLDSDGSFFLYSKLTVDKSRWQQGNVFSCSVIHEALHNHYTQKSLSLSPGK
notes: as for B1
B19: Fc703 (other)
chain: DKTHTCPPCPAPELLGGPSVFLFPPKPKDTLMISRTPEVTCVVVDVSHEDPEVKFNWYVDGVEVHNAKTKPREEQYNSTYRVVSVLTVLHQDWLNGKEYKCKVSNKAWPEEYEKTISKAKGQPREPQVYTLPPSRDELTKNQVSLTCLVKGFYPSDIAVEWVSNGQPENNYKTTPPVLDSDGSFFLYSKLTVDKSRWQQGNVFSCSVIHEALHNHYTQKSLSLSPGK
notes: as for B1
B20: Fc618 (other)
chain: DKTHTCPPCPAPELLGGPSVFLFPPKPKDTLMISRTPEVTCVVVDVSHEDPEVKFNWYVDGVEVHNAKTKPREEQYNSTYRVVSVLTVLHQDWLNGKEYKCKVSNKALPAPIEKTISKAKGQPREPQVYTLPPSRDELTKNQVSLTCLVKGFYPSDIAVEWVSNGQPENNYKTTPPVLDSDGSFFLYSKLTVDKSRWQQGNVFSCSVIHEALHSHYTQKSLSLSPGK
notes: as for B1

In the experiment the target is T1, extracellular domain of recombinant glycosylated FcγRIa/CD64 (R&D Systems) labeled with FITC (human, UniProt P12314 16-292, FITC-labeled; glycosylated).
T1 construct: extracellular domain; it is not restated for the bought reagent; also called FcγRIa-FITC; FcγRI-FITC
T1 sequence (P12314 16-292): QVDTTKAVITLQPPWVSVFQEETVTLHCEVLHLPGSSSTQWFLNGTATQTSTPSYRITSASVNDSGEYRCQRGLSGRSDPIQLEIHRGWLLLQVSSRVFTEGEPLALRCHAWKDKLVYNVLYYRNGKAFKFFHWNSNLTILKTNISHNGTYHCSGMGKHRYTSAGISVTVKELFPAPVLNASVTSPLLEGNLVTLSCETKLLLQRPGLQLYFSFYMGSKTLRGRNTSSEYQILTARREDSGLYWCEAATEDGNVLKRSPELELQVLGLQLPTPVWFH
Put plainly: flow cytometry of E. coli spheroplasts expressing the Fc fragment, labeled with FcγRIa-FITC. For orientation: In flow cytometry, cells or beads pass a laser one at a time.
For the molecule B1, the binding result is recorded as “binds”.

B2: the binding result is “binds”.

Regarding B3, the binding result is listed as “binds”.

Consider B4, for which the binding result is “binds”.

For B5, the binding result is “binds”.

On to B6, for which the binding result is on record as “binds”.

In the case of B7, the binding result is “binds”.

Consider B8, for which the binding result was “binds”.

Take B9: the binding result is on record as “binds”.

Turning to B10, the binding result was “binds”.

Turning to B11, the binding result is “binds”.

For B12, the binding result is on record as “binds”.

Consider B13, for which the binding result is recorded as “binds”.

For the molecule B14, the binding result is listed as “binds”.

In the case of B15, the binding result is recorded as “binds”.

Consider B16, for which the binding result was “binds”.

On to B17, for which the binding result was “binds”.

Consider B18, for which the binding result is listed as “binds”.

In the case of B19, the binding result is given as “binds”.

As for B20, the binding result was “binds”.
